Where a chain is given by its changes, count along the chain named.
Columns and labels:
Recombinant CHIKV p62-E1 = target: T1, Recombinant CHIKV p62-E1 (Chikungunya virus); assay: SPR (Biacore T100), IgG captured on anti-human IgG, p62-E1 injected
T1 construct: also called soluble CHIKV p62-E1; monomeric E1 protein

[1] = target: T2, Recombinant CHIKV E2 ectodomain protein (corresponding to the CHIKV-LR2006 strain) (Chikungunya virus strain LR2006); assay: ELISA on coated E2 ectodomain, mAb at 10 µg/mL
T2 construct: extracellular domain; also called CHIKV-LR2006 E2 ectodomain; purified E2 protein

B1: human mAb 5O14 (antibody, V domains shown)
VH: QVQLVQSGGRVVQAGRSLRLSCAASGFTFSMYGVHWVRQAPGKGLEWVAVIWNDGSKEYYGDSVKGRFTISRDNSRNTLYLQMNSLRVDDTAVYFCARDGIPDPERGDYGGLDYWGQGTLVTVSS
VL: QTVVTQFPSSPFASVGDGVTITCRARQSISSYVNWYQQKPGKAPKLLIYATSSLQSGVPSRFSGSGYGTDFTLTISGLQPEDFATYYCQQSYSFPRTFGQGTKVEIK
For B1, the Kd (Recombinant CHIKV p62-E1) was 1.15 nM, the koff (Recombinant CHIKV p62-E1) was 0.000911 s⁻¹ and the kon (Recombinant CHIKV p62-E1) was 790000 M⁻¹ s⁻¹. The t1/2 (Recombinant CHIKV p62-E1) was 13 min and the OD450 [1] was > 1 od.

B2: human mAb 2C2 (antibody, V domains shown)
VH: QVQLVQSGGGLVQPGRSLTLSCAASGFTFDVYAMHWVRQAPGKGLEWVAGISWNSGSVGYADSMKGRFTISRDNAKNSLYLQINSLRAEDTALYYCAKAFWFGELSGYGMDVWGQGTLVTVSS
VL: QAVVTQPPSASGFPGQSVTISCTGTSSDVGSYNYVSWYQQHPGKAPKLIIYAVTRRPSGVPERFSGSKSGNTASLTVSGLQAEDEADYYCTSYAGNNKDVFGTGTKVTVL
Work on B2 yielded a t1/2 (Recombinant CHIKV p62-E1) of 19 min.

B3: human mAb 4J21 (antibody, V domains shown)
VH: QVQLVQSGSELKKPGASVKVSCKASGYSFTSYSINWVRQAPGQGPEWMGWIDTNTGNPTYAQDFAGRFVFSLDTSVTTAYLQISSLKAGDTAVYYCATYYVDLWGSYRQDYYGMDVWGHGTLVTVSS
VL: QSVVTQPPSVSGTPGQGVTISCSGGSSNIGSNPVNWYQMVPGTAPKLLLYTNNQRPSGVPDRFSGSKSGTSASLAINGLQSEDEADYYCAVWDDSLSGRWVFGGGTKLTVL
Binder B3 has a t1/2 (Recombinant CHIKV p62-E1) of 186 min and an OD450 [1] of 0.5 to 0.99 od.

B4: human mAb 2B4 (antibody, V domains shown)
VH: QVQLVQSGSELKKPGASVKVSCKASGYSFTSYSINWVRQAPGQGPEWMGWIDTNTGNPTYAQDFAGRFVFSLDTSVTTAYLQISSLKAGDTAVYYCATYYVDLWGSYRQDYYGMDVWGH
VL: B3 VL with V4L, V10A, G17R, L108V
With B4 the OD450 [1] was 0.5 to 0.99 od.
